For two molecules, Kd results are on record in PMC3258144.

The data set has as its target Dnmt3a-C WT (mouse, UniProt O88508 608-908). In words: fluorescence anisotropy.

Dnmt3a-C WT, sequence (O88508 608-908): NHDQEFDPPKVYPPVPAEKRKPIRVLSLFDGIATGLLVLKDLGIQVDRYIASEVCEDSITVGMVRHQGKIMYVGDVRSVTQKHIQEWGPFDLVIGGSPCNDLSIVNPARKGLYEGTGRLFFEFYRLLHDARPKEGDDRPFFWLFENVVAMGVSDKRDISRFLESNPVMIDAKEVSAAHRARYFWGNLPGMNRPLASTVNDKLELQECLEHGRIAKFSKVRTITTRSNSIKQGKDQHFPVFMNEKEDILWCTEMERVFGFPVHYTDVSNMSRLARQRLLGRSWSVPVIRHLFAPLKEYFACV

B1: 2CG-Cy5 29-mer (dsDNA)
DNA 1: ACTTGCAACGGTCCTAACCGTCACCTCTT
DNA 2: AAGAGGTGACGGTTAGGACCGTTGCAAGT
The molecule B1 had a Kd of 0.19 ± 0.01 µM.

B2: Non-CG-Cy5 29-mer (dsDNA)
DNA 1: ACTTGCAACAGTCCTAACATTCACCTCTT
DNA 2: AAGAGGTGAATGTTAGGACTGTTGCAAGT
As to B2, the affinity, expressed as Kd, was 0.13 ± 0.012 µM.
